Assay type in all cases: cell-based
In one experiment the test system is RAJI cells. The experiment is described as follows: JNG assay, co-culture with RAJI cells. The settings on record: JNG cells expressing construct, co-culture with Raji. In short, it runs like this: (§1)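 Jurkat NFAT-GFP (JNG) cells stably transduced with SARs by lentivirus, with drug selection where the construct carried a resistance gene, then co-cultured with target cells at E:T ~1:2 for ~4–18 h. % GFP-positive cells measured by FACS against parental JNG; +/- to 5+ correspond to ~5–50% GFP-positive.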

In another experiment the test system is Nalm6 cells. The experiment is described as follows: JNG assay, co-culture with Nalm6 cells. The settings on record: co-culture with Nalm6. A digest of the protocol: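 Drug-selected populations of SAR-expressing Jurkat-NFAT-GFP cells meet target cells (about 1:2 E:T) for roughly 4–18 h. Flow cytometry gives % GFP+ cells, graded +/- to 5+ (≈5% to ≈50%) relative to the parental control.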

The subject of a further experiment is U266 cells. Briefly: JNG NFAT-GFP induction on co-culture with U266.
Another experiment relates to L363 cells. Briefly: JNG assay, co-culture with L363 cells. The conditions noted are these: co-culture with L363. A digest of the protocol:
as §1

In a further experiment the test system is RAJI-CD19-KO cells. Briefly: JNG assay, co-culture with RAJI-CD19-KO cells. The settings on record: co-culture with Raji-CD19-KO. In short, it runs like this: as §1

B1: 22160 (protein)
chain: MALPVTALLLPLALLLHAARPACEVQLLESGGGLIQPGGSLRLSCAASGFTFSSHAMTWVRQAPGKGLEWVSAISGSGDYTHYADSVKGRFTISRDNSKNTVYLQMNSLRAEDSAVYYCAKDEDGGSLLGHRGQGTLVTVSSGTGGGGSGGGGSGGGGSEFDIQMTQSPSSLSASVGDRVTITCKASQDVGIAVAWYQQKPGKVPKLLIYWASTRHTGVPDRFSGSGSGTDFTLTISSLQPEDVATYYCQQYSSYPYTFGQGTKVEIKRLEADVSPKPTIFLPSIAETKLQKAGTYLCLLEKFFPDVIKIHWQEKKSNTILGSQEGNTMKTNDTYMKFSWLTVPEKSLDKEHRCIVRHENNKNGVDQEIIFPPIKTDVITMDPKDNCSKDANDTLLLQLTNTSAYYMYLLLLLKSVVYFAIITCCLLRRTAFCCNGEKSRAKRSGSGATNFSLLKQAGDVEENPGPTSMDWIWRILFLVGAATGAHSGPQVQLQESGGGLAQAGGSLRLSCAASGRTFSMGWFRQAPGKEREFVAAITYSGGSPYYASSVRGRFTISRDNAKNTVYLQMNSLKPEDTAVYYCAANPTYGSDWNAENWGQGTQVTVSSGSGGGGSGGGGSGGGGSFEQVQLQQPGAELVKPGASVKMSCKASGYAFSSYWINWMKQKPGQGLEWIGQIYPGDGDTNYNGKFKGRATLTADTSSSTAYMQLSSLTSEDSAVYFCARSITTVVGCAMDYWGQGTSVTVSSTRPHTKPSVFVMKNGTNVACLVKEFYPKDIRINLVSSKKITEFDPAIVISPSGKYNAVKLGKYEDSNSVTCSVQHDNKTVHSTDFEVKTDSTDHVKPKETENTKQPSKSCHKPKAIVHTEKVNMMSLTVLGLRMLFAKTVAVNFLLTAKLFFLRAKRSGSGVKQTLNFDLLKLAGDVESNPGPSRGHMTEYKPTVRLATRDDVPRAVRTLAAAFADYPATRHTVDPDRHIERVTELQELFLTRVGLDIGKVWVADDGAAVAVWTTPESVEAGAVFAEIGPRMAELSGSRLAAQQQMEGLLAPHRPKEPAWFLATVGVSPDHQGKGLGSAVVLPGVEAAERAGVPAFLETSAPRNLPFYERLGFTVTADVEVPEGPRTWCMTRKPGA
In the case of B1, in the experiment on RAJI cells, the “NFAT-GFP ASSAY: Raji” value was 2+ (refer to approximately 5%, 10%, 20%, 30%, 40% and 50% GFP positive cells). Besides, the “NFAT-GFP ASSAY: Nalm6” value with Nalm6 cells is “+ (refer to approximately 5%, 10%, 20%, 30%, 40% and 50% GFP positive cells)”. Besides, the “NFAT-GFP ASSAY: U266” value in the experiment on U266 cells was 3+ (refer to approximately 5%, 10%, 20%, 30%, 40% and 50% GFP positive cells). Besides, the “NFAT-GFP ASSAY: L363” value in the experiment with L363 cells was “+ (refer to approximately 5%, 10%, 20%, 30%, 40% and 50% GFP positive cells)”.

B2: 22224 (protein)
chain: MALPVTALLLPLALLLHAARPDIQMTQSPSSLSASVGDRVTITCKASDHINNWLAWYQQKPGQAPKLLIYGATTLETGVPSRFSGSGSGTDYTLTISSLQPEDFATYYCQQSWNTPWTFGQGTKLEIKRLEDLKNVFPPEVAVFEPSEAEISHTQKATLVCLATGFYPDHVELSWWVNGKEVHSGVCTDPQPLKEQPALNDSRYCLSSRLRVSATFWQNPRNHFRCQVQFYGLSENDEWTQDRAKPVTQIVSAEAWGRADCGFTSESYQQGVLSATILYEILLGKATLYAVLVSALVLMAMVKRKDSRGRAKRSGSGATNFSLLKQAGDVEENPGPTSATMDWIWRILFLVGAATGAHSGPEVQLVESGGGLVQAGGSLRLSCAASGRTFTMGWFRQAPGKEREFVAAISLSPTLAYYADSVKGRFTISRDNAKNTVVLQMNSLKPEDTALYYCAADRKSVMSIRPDYWGQGTQVTVSSGSALRRLLGLFGFEQVQLQQPGAELVKPGASVKMSCKASGYAFSSYWINWMKQKPGQGLEWIGQIYPGDGDTNYNGKFKGRATLTADTSSSTAYMQLSSLTSEDSAVYFCARSITTVVGCAMDYWGQGTSVTVSSTRIQNPDPAVYQLRDSKSSDKSVCLFTDFDSQTNVSQSKDSDVYITDKCVLDMRSMDFKSNSAVAWSNKSDFACANAFNNSIIPEDTFFPSPESSCDVKLVEKSFETDTNLNFQNLSVIGFRILLLKVAGFNLLMTLRLWSSRAKRSGSGVKQTLNFDLLKLAGDVESNPGPSRGHMTEYKPTVRLATRDDVPRAVRTLAAAFADYPATRHTVDPDRHIERVTELQELFLTRVGLDIGKVWVADDGAAVAVWTTPESVEAGAVFAEIGPRMAELSGSRLAAQQQMEGLLAPHRPKEPAWFLATVGVSPDHQGKGLGSAVVLPGVEAAERAGVPAFLETSAPRNLPFYERLGFTVTADVEVPEGPRTWCMTRKPGA
Regarding B2, in the experiment on RAJI cells, the “NFAT-GFP ASSAY: Raji” value is “+ (refer to approximately 5%, 10%, 20%, 30%, 40% and 50% GFP positive cells)”. For the same molecule, the “NFAT-GFP ASSAY: Raji-CD19-KO” value in the experiment on RAJI-CD19-KO cells is 2+ (refer to approximately 5%, 10%, 20%, 30%, 40% and 50% GFP positive cells). Besides, the “NFAT-GFP ASSAY: U266” value in the experiment with U266 cells is 4+ (refer to approximately 5%, 10%, 20%, 30%, 40% and 50% GFP positive cells). The “NFAT-GFP ASSAY: L363” value with L363 cells is 2+ (refer to approximately 5%, 10%, 20%, 30%, 40% and 50% GFP positive cells).

B3: 22246 (protein)
chain: MALPVTALLLPLALLLHAARPACEVQLLESGGGLIQPGGSLRLSCAASGFTFSSHAMTWVRQAPGKGLEWVSAISGSGDYTHYADSVKGRFTISRDNSKNTVYLQMNSLRAEDSAVYYCAKDEDGGSLLGHRGQGTLVTVSSGTGPQGIFGQPGYINEFDIQMTQSPSSLSASVGDRVTITCKASDHINNWLAWYQQKPGQAPKLLIYGATTLETGVPSRFSGSGSGTDYTLTISSLQPEDFATYYCQQSWNTPWTFGQGTKLEIKRLEDLKNVFPPEVAVFEPSKAEIAHTQKATLVCLATGFYPDHVELSWWVNGKEVHSGVCTDPQPLKEQPALNDSRYCLSSRLRVSATFWQNPRNHFRCQVQFYGLSENDEWTQDRAKPVTQIVSAEAWGRADCGITSASYHQGVLSATILYEILLGKATLYAVLVSALVLMAMVKRKDSRGRAKRSGSGATNFSLLKQAGDVEENPGPTSATMDWIWRILFLVGAATGAHSGPEVQLVESGGGLVQAGGSLRLSCAASGRTFSMGWFRQAPGKEREFVAAITYSGGSPYYADSVKGRFTISRDNAKNTVYLQMNSLKPEDTAVYYCAANPTYGSDWNAENWGQGTQVTVSSGSGGGGSGGGGSGGGGSFEQVQLQQPGAELVKPGASVKMSCKASGYAFSSYWINWMKQKPGQGLEWIGQIYPGDGDTNYNGKFKGRATLTADTSSSTAYMQLSSLTSEDSAVYFCARSITTVVGCAMDYWGQGTSVTVSSTRIQNPDPAVYQLRDSKSSDKSVCLFTDFDSQTNVSQSKDSDVYITDKCVLDMRSMDFKSNSAVAWSNKSDFACANAFNNSIIPEDTFFPSPESSCDVKLVEKSFETDTNLNFQNLSVIGFRILLLKVAGFNLLMTLRLWSSRAKRSGSGVKQTLNFDLLKLAGDVESNPGPSRGHMTEYKPTVRLATRDDVPRAVRTLAAAFADYPATRHTVDPDRHIERVTELQELFLTRVGLDIGKVWVADDGAAVAVWTTPESVEAGAVFAEIGPRMAELSGSRLAAQQQMEGLLAPHRPKEPAWFLATVGVSPDHQGKGLGSAVVLPGVEAAERAGVPAFLETSAPRNLPFYERLGFTVTADVEVPEGPRTWCMTRKPGA
As for B3, the “NFAT-GFP ASSAY: Nalm6” value in the experiment on Nalm6 cells is “+ (refer to approximately 5%, 10%, 20%, 30%, 40% and 50% GFP positive cells)”. Also, in the experiment on U266 cells, the “NFAT-GFP ASSAY: U266” value is 2+ (refer to approximately 5%, 10%, 20%, 30%, 40% and 50% GFP positive cells). Also, the “NFAT-GFP ASSAY: L363” value in the experiment on L363 cells was “+ (refer to approximately 5%, 10%, 20%, 30%, 40% and 50% GFP positive cells)”.

B4: 22220 (protein)
chain: MALPVTALLLPLALLLHAARPACEVQLLESGGGLIQPGGSLRLSCAASGFTFSSHAMTWVRQAPGKGLEWVSAISGSGDYTHYADSVKGRFTISRDNSKNTVYLQMNSLRAEDSAVYYCAKDEDGGSLLGHRGQGTLVTVSSGTGAIGFLRTAEFDIQMTQSPSSLSASVGDRVTITCKASDHINNWLAWYQQKPGQAPKLLIYGATTLETGVPSRFSGSGSGTDYTLTISSLQPEDFATYYCQQSWNTPWTFGQGTKLEIKRLEDLKNVFPPEVAVFEPSKAEIAHTQKATLVCLATGFYPDHVELSWWVNGKEVHSGVCTDPQPLKEQPALNDSRYCLSSRLRVSATFWQNPRNHFRCQVQFYGLSENDEWTQDRAKPVTQIVSAEAWGRADCGITSASYHQGVLSATILYEILLGKATLYAVLVSALVLMAMVKRKDSRGRAKRSGSGATNFSLLKQAGDVEENPGPTSATMDWIWRILFLVGAATGAHSGPEVQLVESGGGLVQAGGSLRLSCAASGRTFSMGWFRQAPGKEREFVAAITYSGGSPYYADSVKGRFTISRDNAKNTVYLQMNSLKPEDTAVYYCAANPTYGSDWNAENWGQGTQVTVSSGSGGGGSGGGGSGGGGSFEQVQLQQPGAELVKPGASVKMSCKASGYAFSSYWINWMKQKPGQGLEWIGQIYPGDGDTNYNGKFKGRATLTADTSSSTAYMQLSSLTSEDSAVYFCARSITTVVGCAMDYWGQGTSVTVSSTRIQNPDPAVYQLRDSKSSDKSVCLFTDFDSQTNVSQSKDSDVYITDKCVLDMRSMDFKSNSAVAWSNKSDFACANAFNNSIIPEDTFFPSPESSCDVKLVEKSFETDTNLNFQNLSVIGFRILLLKVAGFNLLMTLRLWSSRAKRSGSGVKQTLNFDLLKLAGDVESNPGPSRGHMTEYKPTVRLATRDDVPRAVRTLAAAFADYPATRHTVDPDRHIERVTELQELFLTRVGLDIGKVWVADDGAAVAVWTTPESVEAGAVFAEIGPRMAELSGSRLAAQQQMEGLLAPHRPKEPAWFLATVGVSPDHQGKGLGSAVVLPGVEAAERAGVPAFLETSAPRNLPFYERLGFTVTADVEVPEGPRTWCMTRKPGA
In the case of B4, the “NFAT-GFP ASSAY: Raji-CD19-KO” value with RAJI-CD19-KO cells was “+ (refer to approximately 5%, 10%, 20%, 30%, 40% and 50% GFP positive cells)”. Also, the “NFAT-GFP ASSAY: Nalm6” value in the experiment on Nalm6 cells is “+/- (refer to approximately 5%, 10%, 20%, 30%, 40% and 50% GFP positive cells)”. Further, the “NFAT-GFP ASSAY: U266” value with U266 cells was “+ (refer to approximately 5%, 10%, 20%, 30%, 40% and 50% GFP positive cells)”. For the same molecule, in the experiment on L363 cells, the “NFAT-GFP ASSAY: L363” value was “+/- (refer to approximately 5%, 10%, 20%, 30%, 40% and 50% GFP positive cells)”.
